Assay results as given in US20250295734A1, “ANTICOAGULANT PROTEINS AND THEIR USE FOR TREATING DISEASES ASSOCIATED WITH THE ACTIVATION OF NEUTROPHILS” (BIOXODES, priority 2018, published 2025).

Key:
[1] = system: platelet accumulation and fibrin generation on the injured vessel walls; experiment: Laser-induced vessel wall injury of cremaster muscle arterioles: platelet and fibrin detection; type: in vivo, mice (C57BL/6JRj); settings: iv bolus 20.5 mg/kg + infusion 3.7 mg/kg/h
Method: (§1) Ir-CPI was administered intravenously as a bolus (20.5 mg/kg) immediately followed by a continuous infusion at a rate of 3.7 mg/kg/h (see Table 1 below). Due to fast distribution and elimination of Ir-CPI in the mice (t1/2α=14 min and t1/2β=236 min), the combination of the bolus and the infusion was chosen in order to maintain a constant Ir-CPI concentration into the blood.
Intravital video-microscopy of the cremaster muscle microcirculation was done as previously described (Falati et al., 2002).
Mice were anesthetized with intraperitoneal injection of ketamine (125 mg/kg), xylazine (12.5 mg/kg) and atropine (0.25 mg/kg) and were maintained at 37° C. on a thermo-controlled rodent blanket.
A tracheal tube was inserted into the trachea to facilitate breathing. A canula was inserted into a jugular vein for administration of pentobarbital. Pentobarbital (12 mg/kg) was administered in the jugular vein every 20-30 minutes to maintain the mice under anesthesia throughout the handling. The same jugular vein canula was used for the administration of the antibodies and the enzymatic substrate coupled to a fluorochrome that is necessary to follow the development of the thrombus (detection of fibrin and/or platelets and/or neutrophils and/or neutrophil elastase activity). A canula was also inserted in the second contralateral jugular vein for administration of the vehicle or the test item (Ir-CPI or NaCl).
After the scrotum was incised, the testicle and surrounding cremaster muscle were exteriorized onto an intravital microscopy tray. The cremaster muscle was continuously perfused with thermo-controlled (37° C.) and aerated (95% N2, 5% CO2) bicarbonate-buffered saline solution throughout the experiment.
Microvessel data were obtained using an Olympus AX61WI microscope with a 60×0.9-numerical aperture water immersion objective. The digital wide-field fluorescence microscopy system has previously been described (Falati et al., 2002). Digital images were captured with a Cooke Sensicam CCD camera in 640×480 format.
(§2) Vessel wall injury was induced with a Micropoint Laser System (Photonics Instruments) focused through the microscope objective, parfocal with the focal plane and aimed at the vessel wall, as previously described (Dubois et al., 2006). Typically, 1 or 2 pulses were required to induce vessel wall injury.
(§3) Multiple thrombi were studied in a single mouse, with new thrombi formed upstream of earlier thrombi to avoid any contribution from thrombi generated earlier in the animal under study. Laser-beam injuries were done at various time after the start of test-item administration (+5 min up to about 150 min after bolus administration of Ir-CPI or NaCl (control)).
(§4) Image analysis was performed using Slidebook 4.1 (Intelligent Imaging Innovations). Fluorescence data were captured digitally at up to 50 frames per second and analyzed as previously described (Falati et al., 2002). The kinetics of thrombus formation were analyzed by determining median fluorescence values over time in a minimum number of 20 thrombi.
In vivo detection of fibrin was performed using an Alexa Fluor 488-conjugated anti-fibrin antibody from Darbousset et al., 2014, administered intravenously at 0.5 μg/g of mouse. […]
Platelet accumulation and fibrin generation on the injured vessel walls were monitored using the following fluorescently labeled antibodies: DyLight649-labeled anti-GPIb antibody and Alexa Fluor 488-conjugated anti-fibrin antibody, respectively.

[2] = system: polymorphonuclear neutrophils (PMNs); experiment: Laser-induced vessel wall injury: PMN accumulation (anti-Ly6G); type: in vivo, mice (C57BL/6JRj); settings: iv bolus 20.5 mg/kg + infusion 3.7 mg/kg/h
Method: as §1, §2, §3, §4
Detection of PMNs in vivo was performed using PE-labelled anti-Ly6G antibody.
To determine whether Ir-CPI has an impact on the accumulation of PMNs at the site of injury, the accumulation of PMNs on the injured vessel wall was monitored using a PE-fluorescently labeled antibody directed against Ly6G (FIG. 5).

[3] = system: neutrophils isolated from bone marrow of femurs of mice; experiment: Neutrophil activation following incubation with ATP (flow cytometry); type: cell-based, mice (C57BL/6)
Method: Neutrophils were isolated from the bone marrow of femurs of mice (C57BL/6) as previously described (Hu 2012), using FR-1-coupled magnetic beads (anti-Ly6G Microbead Kit, Miltenyi Biotec). For activation with TFNα, cells were harvested, centrifugated and incubated during 30 min with or without 2 ng/ml of TNFα in Hanks solution (Gibco). Next, neutrophils were incubated with Ir-CPI (0.65 or 2 μM) in Hanks solution (1 h at 37° C.). For activation with ATP, cells were harvested, centrifugated and incubated with ATP 10 μM and Ir-CPI (0.65 or 2 μM) in Hanks solution (1 h at 37° C.). After washing of cells, expression of CD11b, activated CD11b or Ly6G was assessed by flow cytometry (Beckman Coulter Gallios). Antibodies used for neutrophil identification and activation analyses were IRR IgG1-FITC (irrelevant antibody), anti-CD45-APC, anti-Ly6G-PE and anti-CD11b-FITC or Alexa Fluor 647 anti-activated CD11b-. Analysis of results was performed using the Kaluza software (Beckman Coulter).
Percentage of activation marker expression was presented as mean±SEM (n=3independent experiments for TNFα activation and n=2 independent experiments for ATP activation). For experiments with TNFα activation, a one-way ANOVA followed by a
Neutrophils isolated from bone marrow of femurs of mice were submitted to different in vitro experimental conditions (untreated control or incubation with Ir-CPI, and with or without ATP) to assess the effect of Ir-CPI on their activation status. The activation status was assessed by analyzing the percentage of CD11b, activated CD11b and Ly6G expressions at the surface of neutrophils (FIG. 17).

[4] = system: extrinsic or common pathway; settings: in vitro; cited from earlier work
Factor XIa = Factor XIa (Homo sapiens, UniProt P03951); settings: cited from earlier work
Sequence of Factor XIa (P03951 19-387 limits assumed): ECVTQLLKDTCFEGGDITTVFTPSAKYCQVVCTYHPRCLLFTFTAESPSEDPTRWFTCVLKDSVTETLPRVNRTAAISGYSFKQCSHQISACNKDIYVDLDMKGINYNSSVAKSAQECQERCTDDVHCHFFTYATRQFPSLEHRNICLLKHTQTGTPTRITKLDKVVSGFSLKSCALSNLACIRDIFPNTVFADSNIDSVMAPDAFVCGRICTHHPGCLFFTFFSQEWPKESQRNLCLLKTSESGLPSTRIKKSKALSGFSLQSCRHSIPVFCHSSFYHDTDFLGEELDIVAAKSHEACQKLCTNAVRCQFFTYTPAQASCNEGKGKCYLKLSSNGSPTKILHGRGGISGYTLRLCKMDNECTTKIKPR
Sequence of Factor XIa (P03951 388-625 limits assumed): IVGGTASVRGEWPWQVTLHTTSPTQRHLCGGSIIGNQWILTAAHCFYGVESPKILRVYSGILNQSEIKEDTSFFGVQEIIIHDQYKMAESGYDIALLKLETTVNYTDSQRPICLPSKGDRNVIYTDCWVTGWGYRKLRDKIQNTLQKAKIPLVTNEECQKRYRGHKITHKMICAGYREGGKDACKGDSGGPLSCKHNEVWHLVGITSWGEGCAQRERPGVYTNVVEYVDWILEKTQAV

thrombin = thrombin (Homo sapiens, UniProt P00734); settings: cited from earlier work
[5] = rodents; pharmacological therapeutic active dose; cited from earlier work
clot fibrinolysis = settings: dose-dependent; in a lesser extend than aPTT; cited from earlier work
FXIa = FXIa (Homo sapiens, UniProt P03951); settings: aPTT-based test, FXI deficient plasma; cited from earlier work
Sequence of FXIa (P03951 19-387 limits assumed): as the sequence (P03951 19-387 limits assumed) above
Sequence of FXIa (P03951 388-625 limits assumed): as the sequence (P03951 388-625 limits assumed) above

B1: Ir-CPI: Ixodes ricinus salivary gland polypeptide, contact phase inhibitor, MW=7660 Da; sequence SEQ ID NO: 1 or SEQ ID NO: 2 (protein)
chain: ANHKGRGRPAKCKLPPDDGPCRARIPSYYFDRKTKTCKEFMYGGCEGNENNFENITTCQEECRAKKV
For B1, the “maximal median of integrated platelet fluorescence” value ([1]; at T214 sec after laser injury) was 121 783 AU, the “median of integrated platelet fluorescence” value ([1]; at T228 sec (end of measurement)) was 101 887 AU and the “median of integrated fibrin fluorescence intensity compared to control mice” value ([1]; every time point 0, 15, 30, 45, 75 and 90 min) was “lower”. For the same molecule, the “fibrin generation compared to control mice” value ([1]; first 3.8 min after laser injury) was “less important”, the “platelet accumulation compared to control mice” value ([1]; short time period (228 sec)) was “drastically decreased” and the “maximal median of integrated PMN fluorescence (anti-Ly6G)” value ([2]; at T 261 sec) was 3.02×10^6 AU. For the same molecule, the “median of integrated PMN fluorescence” value ([2]; at T 270 sec (end of measurement)) was 2.78×10^6 AU, the “PMN accumulation compared to control mice” value ([2]; first 4.5 min after laser injury) was “drastically decreased” and the “expression of Ly6G at the surface of neutrophils” value ([3]; ATP 10 μM, Ir-CPI 0.65 or 2 μM (FIG. 17A)) was “decreased”. The “expression of activated CD11b at the surface of neutrophils” value ([3]; ATP 10 μM, Ir-CPI 0.65 or 2 μM (FIG. 17C)) was “significantly decreased”, the “expression of CD11b” value ([3]; ATP experiment (FIG. 17B), Ir-CPI 0.65 and 2 μM) was “no effect” and the “Prothrombin Time (PT)” value [4] was “no effect”. For the same molecule, the “Thrombin Time (TT)” value [4] was “no effect”, the “dilute Russell's Viper Venom time (dRVVT)” value [4] was “no effect” and the “activation of Factor XII by Factor XIa” value (Factor XIa) was “inhibit activation”. For the same molecule, the activity on thrombin (thrombin) was “totally inactive”, the bleeding [5] was “does not increase bleeding” and the clot fibrinolysis time (clot fibrinolysis) was “prolongs”. The FXIa clotting activity (FXIa) was “inhibits”.
